From patent publication US9340580B2, “Peptide with multiple epitopes” (priority 2007, dated 2016) come the findings set out here.

The target in one series is DQA1*0102/DQB1*0602 (Homo sapiens, UniProt P01909+P01920, A157G/A45G/C70R/E118A/E183D/E77G/F83G/G63E/H151Q/H199R/H252R/H253Q/I129T/I235V/I88M/INS77G/K197Q/L117V/L119F/L178F/L71W/L74F/L85Q/L91A/L98M/N214S/P87R/Q116E/Q76K/R102G/R240Q/R75S/R78G/S102Y/S185I/S41F/S97I/T121G/T122I/T172A/T86R/V229M/V68A/V73E/Y34C/Y41F/Y58L). Kind of series: competitive MHC class II binding assay. As to conditions: control peptide Human Insulin B 1-15. On the procedure: (§1) This is a characteristic of promiscuous HLA-DRB1* binders.
In addition, to identify lower affinity binders, the assay was also carried out under less stringent conditions. All the Der p binding peptides were seen to have a high ratio when tested against this allotype, showing they were low affinity binders compared to the control peptide. The DQA1*0102/DQB1*0602 binding assay uses a peptide from the B-chain of human insulin which is of lower affinity compared to those used in the DR assays. This dictates that the DQ assay is very sensitive and tends to produce very low ratio values for the strongest binders to this MHC Class II allotype. This sensitivity also accounts for the relatively higher number of DQ binding peptides within the panel screened. Finally, on closer analysis, the peptides identified as ligands for the DRB1*0101,*0401, *0701 superfamily, are found to incorporate a motif that is characteristic of promiscuous binders to this family of allotypes where: P1=Y, F, W, L, I, V, or M (Large aromatic or hydrophobic residue), P6=S, T, C, A, P, V, I, M (small, non-charged residue)

Series [1] is described as follows: solubility pre-screen in an aqueous, acidic milieu. It counts as physicochemical.
A short description of series [2]: precipitation in the aqueous solution of the binding assay. It counts as physicochemical. Conditions: read-out: Precipitation in assay: lowest concentration at which an insoluble white precipitate is seen.
Excerpt: as §1

The target in a further series is DRB1*0701 (Homo sapiens, UniProt P01903+P01911, A100R/A102G/A103Q/D57E/D86V/E43K/F76Y/K127E/L162R/M171V/P40G/Q125H/Q99D/R33Q/R42Y/R54Q/S133A/S66F/T210M/V115G/Y107V/Y59L/Y89S). Kind of series: competitive MHC class II binding assay. Conditions: control peptide Influenza haemagglutinin 307-319.
Excerpt: as §1

Another series concerns the target DRB1*0401 (Homo sapiens, UniProt P01903+P01911, A100K/A169T/F76Y/I96L/K127E/L162R/M171V/N62H/P40V/Q125Y/R42H/S133A/S149N/S66Y/V115G/V209L/W38E). Kind of series: competitive MHC class II binding assay. As to conditions: control peptide Influenza haemagglutinin 307-319.
Excerpt: as §1

In a further series the target is DRB1*1101 (Homo sapiens, UniProt P01903+P01911, A100R/A169T/A87E/I96F/K41T/L162R/M171V/P40S/Q125H/Q178H/Q39Y/Q99D/R42S/S66Y/T262R/V115G/W38E). Briefly: competitive MHC class II binding assay. As to conditions: control peptide Influenza haemagglutinin 307-319.
Excerpt: as §1

Series [3] deals with human MHC class II allotypes. Briefly: competitive MHC class II binding assay, statements over the panel. As to conditions: peptides of reduced purity.
Excerpt: as §1
This is of significance as purities were seen to vary from 60-90%. This would have a considerable effect on the ability of a peptide to compete if it is relatively impure. […] Therefore, if purity is taken into consideration, they may in fact have an equivalent affinity to a peptide of a higher purity.

Series [4] deals with T1, human MHC class II allotype HLA-DRB1*0301 (human).
T1 construct: Source and construct of the MHC protein in the assay are not described
Briefly: competitive MHC class II binding assay; competitor control peptide hsp 65 2-16.

The target in series [5] is T2, human MHC class II allotype HLA-DRB1*0701 (human).
T2 construct: Source and construct of the MHC protein in the assay are not described
Briefly: competitive MHC class II binding assay; competitor control peptide influenza haemagglutinin 307-319.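 Also: each test peptide was scored on how well it displaces the known control binder from each human MHC class II allotype studied.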

The target in series [6] is T3, human MHC class II allotype HLA-DRB1*1101 (human).
T3 construct: Source and construct of the MHC protein in the assay are not described
Described as above.

Series [7] concerns the target T4, human MHC class II allotype DQA1*0102/DQB1*0602 (human), P01920.
T4 chain 1: not shown
T4 chain 2: not shown

The target in series [8] is T5, human MHC class II allotype HLA-DRB1*1501 (human).
T5 chain 1: not shown
T5 chain 2: not shown

Series [9] concerns the target T6, human MHC class II allotype HLA-DRB1*0701 (human).
T6 chain 1: not shown
T6 chain 2: not shown

For series [10], the target named is T7, human MHC class II allotype HLA-DRB1*1101 (human).
T7 chain 1: not shown
T7 chain 2: not shown

The target in series [11] is T8, human MHC class II allotype DQA1*0102/DQB1*0602 (human, UniProt P01920 33-230, limits assumed).
T8 construct: Source and construct of the MHC protein in the assay are not described
T8 MHC II alpha: not shown
T8 MHC II beta: not shown
Briefly: competitive MHC class II binding assay; competitor control peptide human insulin B 1-15.

Series [12] concerns the target T9, human MHC class II allotype HLA-DRB1*1501 (human).
T9 construct: Source and construct of the MHC protein in the assay are not described
Briefly: competitive MHC class II binding assay; competitor control peptide myelin basic protein 85-99.

Series [13] concerns the target T10, human MHC class II allotype HLA-DRB1*1301 (human).
T10 construct: Source and construct of the MHC protein in the assay are not described
Briefly: competitive MHC class II binding assay; competitor control peptide HLA-DQB1*0603 21-36.

Series [14] addresses T9, human MHC class II allotype …. Briefly: competitive MHC class II binding assay, high stringency screen; competitor control peptide myelin basic protein 85-99.
The target in series [15] is T11, human MHC class II allotype HLA-DRB1*0101 (human).
T11 construct: Source and construct of the MHC protein in the assay are not described
Kind of series: competitive MHC class II binding assay; competitor control peptide influenza haemagglutinin 307-319.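 Also: each test peptide was scored on how well it displaces the known control binder from each human MHC class II allotype studied.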

Series [16] concerns the target T12, human MHC class II allotype HLA-DRB1*0401 (human).
T12 construct: Source and construct of the MHC protein in the assay are not described
The series is described as above.

Where “and” joins values, the source holds several entries; their conditions need not be identical. Equal entries are not always repeated. Where two headings read alike, the source gives them in different places. Where a SMILES comes first, the peptide text is derived from it.

Turning to `CSCC[C@H](NC(=O)[C@H](CO)NC(=O)[C@@H](NC(=O)[C@@H](NC(=O)[C@H](CC(=O)O)NC(=O)[C@H](CC(=O)O)NC(=O)[C@@H](N)Cc1c[nH]cn1)C(C)C)C(C)C)C(=O)N[C@@H](CCC(=O)O)C(=O)N[C@@H](Cc1ccc(O)cc1)C(=O)N[C@@H](CC(=O)O)C(=O)N[C@@H](CC(C)C)C(=O)N[C@@H](C)C(=O)N[C@@H](Cc1ccc(O)cc1)C(=O)N[C@@H](CCCCN)C(=O)N[C@@H](CC(C)C)C(=O)O` [HDM39A] (H-HDDVVSMEYDLAYKL-OH; N-terminus and C-terminus assumed), the “relative binding: ratio of peptide IC50 to control peptide IC50, DQA1*0102 DQB1*0602” value on DQA1*0102/DQB1*0602 came out at 0.1. The Solubility test result in series [1] was “YES”. Also, in series [2], the solubility was 1000 µM and 1800 µg/mL. The “relative binding: ratio of peptide IC50 to control peptide IC50, DRB1*0701” value at DRB1*0701 came out at 0.71. Besides, the “relative binding: ratio of peptide IC50 to control peptide IC50, DRB1*0401” value at DRB1*0401 was found to be 76.19.
For the molecule `CSCC[C@H](NC(=O)[C@H](CO)NC(=O)[C@@H](N)C(C)C)C(=O)N[C@@H](CCC(=O)O)C(=O)N[C@@H](Cc1ccc(O)cc1)C(=O)N[C@@H](CC(=O)O)C(=O)N[C@@H](CC(C)C)C(=O)N[C@@H](C)C(=O)N[C@@H](Cc1ccc(O)cc1)C(=O)N[C@@H](CCCCN)C(=O)N[C@@H](CC(C)C)C(=O)NCC(=O)N[C@@H](CC(=O)O)C(=O)N[C@@H](CC(C)C)C(=O)N[C@@H](Cc1c[nH]cn1)C(=O)O` [HDM40A] (H-VSMEYDLAYKLGDLH-OH; N-terminus and C-terminus assumed), in series [1], the Solubility test result was “YES”. In addition, the solubility in series [2] was 1000 µM and 1800 µg/mL. Further, the “relative binding: ratio of peptide IC50 to control peptide IC50, DRB1*0701” value on DRB1*0701 amounted to 2.29. For the same molecule, the “relative binding: ratio of peptide IC50 to control peptide IC50, DRB1*1101” value at DRB1*1101 was determined as 6.
Regarding “DGLEVDVPGIDPNACH (listed as Dermatophagoides pteronyssinus) [HDM23A]”, in [1], the Solubility test result is listed as “YES”. The “binding affinity in the competition assay (in words)” value in series [3] is given as “low affinity binding”.
In the case of TAIFQDTVRAEMTK (Synthetic peptide, 79.1% purity) [HDM48], the results for the “ratio of its own IC50 to that of the control peptide” value (“ratio of its own IC50” for short) in series [4], in [5] and in series [6] were 211, 15.7 and 13.6, respectively.
On to CIIHRGKPFQLEA (modifications not checked) [HDM20], for which the ratio of its own IC50 to that of the control peptide turned out to be 2.37 in series [7], 242 in series [8], 1.1 in series [9] and 28 in series [10].
DGLEVDVPGIDPNACH (Synthetic peptide, 66.7% purity) [HDM23A]: the “ratio of its own IC50” value in series [4] was 347; in series [11], 0.76.
For RNIQVRGLKQMKRVG (Synthetic peptide, 74.7% purity) [HDM34], the entries for the “ratio of its own IC50” value in series [6], in series [12] and in [13] were 3.38, 769 and 3.7, respectively.
Consider IDLRQMRTVTPIR (Synthetic peptide, 79.2% purity) [HDM01], for which the “ratio of its own IC50” value in series [4] came to 19.2; in series [5], 16.
Regarding LDMRNIQVRGLKQ (Synthetic peptide, 70.3% purity) [HDM33], the figures for the “ratio of its own IC50” value in [5], in [6] and in series [13] were 46.5, 41.5 and 263, respectively.

B1: Fel d 1 peptide EQVAQYKALPVVLENA (peptide)
peptide: EQVAQYKALPVVLENA
notes: Said to have been tested in an earlier study
As for B1, the “ratio of its own IC50” value in series [14] worked out at 0.97.
As for RGKPFQLEAVFEANQNT (Synthetic peptide, 82.6% purity) [HDM21B], the “ratio of its own IC50” value in [6] came to 4.1; in series [15] it was 13.5; in series [16], 0.78.
